Assay results: article PMC3792076, “Elucidation of Substrate Specificity in Aspergillus nidulans UDP-Galactose-4-Epimerase” (PLoS ONE, 2013)

Substrate: O=c1ccn([C@@H]2O[C@H](COP(=O)(O)OP(=O)(O)O[C@H]3O[C@H](CO)[C@H](O)[C@H](O)[C@H]3O)[C@@H](O)[C@H]2O)c(=O)[nH]1
Assay: purified protein
Format: biochemical, Aspergillus nidulans
Settings: 2 mM NAD+, 100 mM Tris-HCl pH 8.5, 25°C

Protein	Km	kcat	kcat/Km
AnGALE (Aspergillus nidulans FGSC A4) (protein, N-terminal His-TEV tag (p-HIS-TEV-GALE), not cleaved for crystallization; E. coli BL21-Gold; homodimer) MPSGSVLVTGGTGYIGSFTTLALLEAGYKVVVADNLYNSSAEALNRIELISGKKAEFAQLDVTDEAAFDKVFEAHPDIDSVIHFAALKAVGESGEKPLDYYHVNVYGTICLLRSMVRHNVTNIVFSSSATVYGDATRFPDMIPIPEHCPLGPTNPYGNTKFAIELAITDVINAQRNNAKKAGNETEAAKWNGALLRYFNPAGAHPSGIMGEDPQGVPYNLLPLLAQVATGKREKLLVFGDDYASHDGTAIRDYIHILDLADGHLKALNYLRANNPGVRAWNLGTGRGSTVYEMIRAFSKAVGRDLPYEVAPRRAGDVLNLTSNPTRANTELGWKAQRTLEQACEDLWLWTKNNPQGYRQQPPAELLEQLKK	110 ± 10 µM	12.8 ± 0.6 s⁻¹	116000 ± 8100 M⁻¹ s⁻¹
AnGALE (Aspergillus nidulans FGSC A4; L320Y) (protein, N-terminal His-TEV tag (p-HIS-TEV-GALE), not cleaved for crystallization; E. coli BL21-Gold; homodimer) MPSGSVLVTGGTGYIGSFTTLALLEAGYKVVVADNLYNSSAEALNRIELISGKKAEFAQLDVTDEAAFDKVFEAHPDIDSVIHFAALKAVGESGEKPLDYYHVNVYGTICLLRSMVRHNVTNIVFSSSATVYGDATRFPDMIPIPEHCPLGPTNPYGNTKFAIELAITDVINAQRNNAKKAGNETEAAKWNGALLRYFNPAGAHPSGIMGEDPQGVPYNLLPLLAQVATGKREKLLVFGDDYASHDGTAIRDYIHILDLADGHLKALNYLRANNPGVRAWNLGTGRGSTVYEMIRAFSKAVGRDLPYEVAPRRAGDVLNYTSNPTRANTELGWKAQRTLEQACEDLWLWTKNNPQGYRQQPPAELLEQLKK	60 ± 10 µM	1.5 ± 0.1 s⁻¹	26800 ± 1900 M⁻¹ s⁻¹
